Measured values as given in the supplement of paper PMC10567573.

B1: SMOC2 (parent)
chain: PALETQPQGDEEDIASRYPTLWTE

Variants of: B1
Test: protein stability index of a GFP-peptide fusion (GPS, HEK-293T) (PSI 1-6); higher = more stable
Conditions: c terminus: a fixed tail appended
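Note: lentivirally expressed fusions sorted by FACS into six bins by GFP to DsRed ratio, PSI derived from sequencing read proportions per bin multiplied by bin number.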

Variant	protein stability index
PALETQPQGDEEDIASRVPTLWTE [Y18V]	4.07
PALETQPQGDEEDIASRMPTLWTE [Y18M]	4.59
PALETQPQGDEEDIASRGPTLWTE [Y18G]	4.61
PALETQPQGDEEDIASRLPTLWTE [Y18L]	4.42
PALETQPQGDEEDIASRAPTLWTE [Y18A]	4.64
PALETQPQGDEEDIASRSPTLWTE [Y18S]	4.65
PALETQPQGDEEDIASRIPTLWTE [Y18I]	4.18
PALETQPQGDEEDIASRWPTLWTE [Y18W]	4.6
PALETQPQGDEEDIASRHPTLWTE [Y18H]	4.87
PALETQPQGDEEDIASRRPTLWTE [Y18R]	4.53
PALETQPQGDEEDIASRCPTLWTE [Y18C]	4.32
PALETQPQGDEEDIASRFPTLWTE [Y18F]	4.25
PALETQPQGDEEDIASRQPTLWTE [Y18Q]	4.39
PALETQPQGDEEDIASRPPTLWTE [Y18P]	4.14
PALETQPQGDEEDIASRNPTLWTE [Y18N]	4.24
PALETQPQGDEEDIASRKPTLWTE [Y18K]	3.34
PALETQPQGDEEDIASREPTLWTE [Y18E]	4.74
PALETQPQGDEEDIASRDPTLWTE [Y18D]	5.89
PALETQPQGDEEDIASRTPTLWTE [Y18T]	4.67
PALETQPQGDEEDNASRYPTLWTE [I14N]	5.01
PALETQPQGDEEDDASRYPTLWTE [I14D]	5.77
PALETQPQGDEEDWASRYPTLWTE [I14W]	3.97
PALETQPQGDEEDSASRYPTLWTE [I14S]	4.64
PALETQPQGDEEDPASRYPTLWTE [I14P]	4.99

Variant	protein stability index
PALETQPQGDEEDFASRYPTLWTE [I14F]	4.42
PALETQPQGDEEDEASRYPTLWTE [I14E]	4.79
PALETQPQGDEEDTASRYPTLWTE [I14T]	5.06
PALETQPQGDEEDCASRYPTLWTE [I14C]	4.14
PALETQPQGDEEDMASRYPTLWTE [I14M]	3.95
PALETQPQGDEEDYASRYPTLWTE [I14Y]	4.39
PALETQPQGDEEDHASRYPTLWTE [I14H]	4.65
PALETQPQGDEEDQASRYPTLWTE [I14Q]	4.4
PALETQPQGDEEDVASRYPTLWTE [I14V]	4.19
PALETQPQGDEEDAASRYPTLWTE [I14A]	4.79
PALETQPQGDEEDGASRYPTLWTE [I14G]	4.53
PALETQPQGDEEDKASRYPTLWTE [I14K]	3.96
PALETQPQGDEEDITSRYPTLWTE [A15T]	4.36
PALETQPQGDEEDIGSRYPTLWTE [A15G]	4.63
PALETQPQGDEEDILSRYPTLWTE [A15L]	4.76
PALETQPQGDEEDIWSRYPTLWTE [A15W]	4.14
PALETQPQGDEEDIMSRYPTLWTE [A15M]	4.67
PALETQPQGDEEDIVSRYPTLWTE [A15V]	3.87
PALETQPQGDEEDIQSRYPTLWTE [A15Q]	4.42
PALETQPQGDEEDIESRYPTLWTE [A15E]	4.29
PALETQPQGDEEDIHSRYPTLWTE [A15H]	4.11
PALETQPQGDEEDIYSRYPTLWTE [A15Y]	4.53
PALETQPQGDEEDIFSRYPTLWTE [A15F]	4.34
PALETQPQGDEEDIKSRYPTLWTE [A15K]	3.78

Variant	protein stability index
PALETQPQGDEEDINSRYPTLWTE [A15N]	4.36
PALETQPQGDEEDIDSRYPTLWTE [A15D]	4.33
PALETQPQGDEEDISSRYPTLWTE [A15S]	3.88
PALETQPQGDEEDIRSRYPTLWTE [A15R]	4.53
PALETQPQGDEEDICSRYPTLWTE [A15C]	4.1
PALETQPQGDEEDIISRYPTLWTE [A15I]	4.57
PALETQPQGDEEDIASRYPTKWTE [L21K]	5.12
PALETQPQGDEEDIASRYPTIWTE [L21I]	5.53
PALETQPQGDEEDIASRYPTSWTE [L21S]	4.75
PALETQPQGDEEDIASRYPTMWTE [L21M]	5.37
PALETQPQGDEEDIASRYPTEWTE [L21E]	5.39
PALETQPQGDEEDIASRYPTRWTE [L21R]	4.91
PALETQPQGDEEDIASRYPTNWTE [L21N]	5.73
PALETQPQGDEEDIASRYPTQWTE [L21Q]	5.66
PALETQPQGDEEDIASRYPTYWTE [L21Y]	3.92
PALETQPQGDEEDIASRYPTHWTE [L21H]	5.91
PALETQPQGDEEDIASRYPTTWTE [L21T]	3.98
PALETQPQGDEEDIASRYPTAWTE [L21A]	5.65
PALETQPQGDEEDIASRYPTDWTE [L21D]	5.72
PALETQPQGDEEDIASRYPTFWTE [L21F]	4.27
PALETQPQGDEEDIASRYPTWWTE [L21W]	5.13
PALETQPQGDEEDIASRYPTPWTE [L21P]	5.64
PALETQPQGDEEDIASRYPTCWTE [L21C]	4.64
PALETQPQGDEEDIASRYPTVWTE [L21V]	4.75

Variant	protein stability index
PALETQPQGDEEDIASRYPTLRTE [W22R]	5.39
PALETQPQGDEEDIASRYPTLLTE [W22L]	5.78
PALETQPQGDEEDIASRYPTLCTE [W22C]	5.32
PALETQPQGDEEDIASRYPTLSTE [W22S]	5.77
PALETQPQGDEEDIASRYPTLDTE [W22D]	5.62
PALETQPQGDEEDIASRYPTLKTE [W22K]	5.3
PALETQPQGDEEDIASRYPTLMTE [W22M]	5.49
PALETQPQGDEEDIASRYPTLYTE [W22Y]	4.73
PALETQPQGDEEDIASRYPTLVTE [W22V]	5.9
PALETQPQGDEEDIASRYPTLQTE [W22Q]	5.51
PALETQPQGDEEDIASRYPTLETE [W22E]	5.2
PALETQPQGDEEDIASRYPTLNTE [W22N]	5.8
PALETQPQGDEEDIASRYPTLATE [W22A]	5.45
PALETQPQGDEEDIASRYPTLTTE [W22T]	5.67
PALETQPQGDEEDIASRYPTLGTE [W22G]	4.47
PALETQPQGDEEDIASRYPTLHTE [W22H]	5.48
PALETQPQGDEEDIASRYPTLFTE [W22F]	5.71
PALETQPQGDEEDIASRYPTLPTE [W22P]	5.92
PALETQPQGDEEDIASRYPTLITE [W22I]	5.58
PALETQPQGDEEDIASCYPTLWTE [R17C]	3.2
PALETQPQGDEEDIASVYPTLWTE [R17V]	4.36
PALETQPQGDEEDIASKYPTLWTE [R17K]	4.35
PALETQPQGDEEDIASHYPTLWTE [R17H]	4.38
PALETQPQGDEEDIASSYPTLWTE [R17S]	4.26

Variant	protein stability index
PALETQPQGDEEDIASPYPTLWTE [R17P]	4.53
PALETQPQGDEEDIASFYPTLWTE [R17F]	3.82
PALETQPQGDEEDIASQYPTLWTE [R17Q]	4.78
PALETQPQGDEEDIASLYPTLWTE [R17L]	4.72
PALETQPQGDEEDIASTYPTLWTE [R17T]	4.29
PALETQPQGDEEDIASYYPTLWTE [R17Y]	3.69
PALETQPQGDEEDIASAYPTLWTE [R17A]	4.81
PALETQPQGDEEDIASNYPTLWTE [R17N]	4.23
PALETQPQGDEEDIASDYPTLWTE [R17D]	4.94
PALETQPQGDEEDIASGYPTLWTE [R17G]	4.71
PALETQPQGDEEDIASEYPTLWTE [R17E]	4.5
PALETQPQGDEEDIASIYPTLWTE [R17I]	4.73
PALETQPQGDEEDIASMYPTLWTE [R17M]	4.94
PALETQPQGDEEDIASWYPTLWTE [R17W]	4.2
PALETQPQGDEEDIASRYFTLWTE [P19F]	4.87
PALETQPQGDEEDIASRYLTLWTE [P19L]	4.87
PALETQPQGDEEDIASRYCTLWTE [P19C]	5.15
PALETQPQGDEEDIASRYQTLWTE [P19Q]	5.13
PALETQPQGDEEDIASRYGTLWTE [P19G]	4.87
PALETQPQGDEEDIASRYETLWTE [P19E]	5.49
PALETQPQGDEEDIASRYNTLWTE [P19N]	4.72
PALETQPQGDEEDIASRYKTLWTE [P19K]	4.32
PALETQPQGDEEDIASRYVTLWTE [P19V]	5.11
PALETQPQGDEEDIASRYSTLWTE [P19S]	4.6

Variant	protein stability index
PALETQPQGDEEDIASRYATLWTE [P19A]	5.73
PALETQPQGDEEDIASRYTTLWTE [P19T]	4.53
PALETQPQGDEEDIASRYDTLWTE [P19D]	4.97
PALETQPQGDEEDIASRYMTLWTE [P19M]	4.32
PALETQPQGDEEDIASRYRTLWTE [P19R]	4.2
PALETQPQGDEEDIASRYITLWTE [P19I]	4.24
PALETQPQGDEEDIASRYYTLWTE [P19Y]	4.45
PALETQPQGDEEDIASRYHTLWTE [P19H]	4.18
PALETQPQGDEERIASRYPTLWTE [D13R]	4.14
PALETQPQGDEEKIASRYPTLWTE [D13K]	2.67
PALETQPQGDEEHIASRYPTLWTE [D13H]	3.71
PALETQPQGDEEGIASRYPTLWTE [D13G]	3.85
PALETQPQGDEEIIASRYPTLWTE [D13I]	3.65
PALETQPQGDEENIASRYPTLWTE [D13N]	4.23
PALETQPQGDEECIASRYPTLWTE [D13C]	3.9
PALETQPQGDEEYIASRYPTLWTE [D13Y]	3.59
PALETQPQGDEESIASRYPTLWTE [D13S]	3.97
PALETQPQGDEEMIASRYPTLWTE [D13M]	4.09
PALETQPQGDEEWIASRYPTLWTE [D13W]	4.68
PALETQPQGDEEQIASRYPTLWTE [D13Q]	4.21
PALETQPQGDEEPIASRYPTLWTE [D13P]	3.63
PALETQPQGDEEFIASRYPTLWTE [D13F]	4.14
PALETQPQGDEEEIASRYPTLWTE [D13E]	3.76
PALETQPQGDEELIASRYPTLWTE [D13L]	3.84

Variant	protein stability index
PALETQPQGDEETIASRYPTLWTE [D13T]	4.23
PALETQPQGDEEVIASRYPTLWTE [D13V]	3.93
PALETQPQGDEEDIASRYPTLWEE [T23E]	5.39
PALETQPQGDEEDIASRYPTLWDE [T23D]	5.55
PALETQPQGDEEDIASRYPTLWFE [T23F]	5.22
PALETQPQGDEEDIASRYPTLWCE [T23C]	5.02
PALETQPQGDEEDIASRYPTLWAE [T23A]	4.21
PALETQPQGDEEDIASRYPMLWTE [T20M]	4.4
PALETQPQGDEEDIASRYPVLWTE [T20V]	3.99
PALETQPQGDEEDIASRYPFLWTE [T20F]	4.6
PALETQPQGDEEDIASRYPGLWTE [T20G]	4.41
PALETQPQGDEEDIASRYPILWTE [T20I]	3.3
PALETQPQGDEEDIASRYPCLWTE [T20C]	3.77
PALETQPQGDEEDIASRYPLLWTE [T20L]	4.66
PALETQPQGDEEDIASRYPHLWTE [T20H]	4.87
PALETQPQGDEEDIASRYPQLWTE [T20Q]	3.83
PALETQPQGDEEDIASRYPPLWTE [T20P]	4.78
PALETQPQGDEEDIASRYPNLWTE [T20N]	4.27
PALETQPQGDEEDIASRYPRLWTE [T20R]	3.88
PALETQPQGDEEDIASRYPELWTE [T20E]	4.41
PALETQPQGDEEDIASRYPYLWTE [T20Y]	4.1
PALETQPQGDEEDIASRYPKLWTE [T20K]	4.37
PALETQPQGDEEDIASRYPALWTE [T20A]	4.31
PALETQPQGDEEDIASRYPWLWTE [T20W]	4.67

Variant	protein stability index
PALETQPQGDEEDIASRYPDLWTE [T20D]	5.59
PALETQPQGDEEDIAQRYPTLWTE [S16Q]	5.17
PALETQPQGDEEDIAHRYPTLWTE [S16H]	3.96
PALETQPQGDEEDIAWRYPTLWTE [S16W]	3.99
PALETQPQGDEEDIADRYPTLWTE [S16D]	4.76
PALETQPQGDEEDIAARYPTLWTE [S16A]	4.5
PALETQPQGDEEDIAPRYPTLWTE [S16P]	5.27
PALETQPQGDEEDIAFRYPTLWTE [S16F]	4.61
PALETQPQGDEEDIAVRYPTLWTE [S16V]	5.14
PALETQPQGDEEDIALRYPTLWTE [S16L]	4.81
PALETQPQGDEEDIAGRYPTLWTE [S16G]	5.21
PALETQPQGDEEDIAIRYPTLWTE [S16I]	4.52
PALETQPQGDEEDIACRYPTLWTE [S16C]	4.63
PALETQPQGDEEDIATRYPTLWTE [S16T]	4.39
PALETQPQGDEEDIAKRYPTLWTE [S16K]	4.18
PALETQPQGDEEDIARRYPTLWTE [S16R]	4.3
PALETQPQGDEEDIAERYPTLWTE [S16E]	4.94
PALETQPQGDEEDIANRYPTLWTE [S16N]	4.56
PALETQPQGDEEDIAYRYPTLWTE [S16Y]	4.31
PALETQPQGDEEDIAMRYPTLWTE [S16M]	5.09
